Like-named read-outs stand apart in the source and are kept apart here.
B1: mutant Repeat B RNA (ssRNA)
RNA: GCAACAGCAACUGCAACAGCAACAGCAACUGCAACUGCAACAGCAACUGCAACA
B2: WT Repeat B RNA (ssRNA)
RNA: GCCCCAGCCCCUGCCCCAGCCCCAGCCCCUGCCCCUGCCCCAGCCCCUGCCCCA

How the values were obtained:
[1] = target: T1, 6xHis-HNRNPK (mouse, UniProt P61979 1-463); assay: EMSA
[2] = target: T1, 6xHis-HNRNPK; assay: EMSA; remark: listed apart in the source

Row | Binder | binding result [1] | binding result [2]
1 | B1 | no binding | 
2 | B2 |  | binds

— paper PMC6469964
